Assays:
PDGF-BB [1] = biological target: T1, PDGF-BB (UniProt P01127 P01127:82-190); assay: 10 or 100 nM splint DNA enhances affinity of bidentate aptamer; settings: chain copies: 2 (inferred, homodimer); linker region hybridised to 40-nt splint oligonucleotide
Excerpt: (§1) High molecular weight aptamer compositions capable of binding to platelet derived growth factor (PDGF) were produced using the following methods. A dimeric, or bidentate PDGF aptamer having the sequence shown in FIG. 4(A) was synthesized using standard reagents (oligonucleotides supplied by Integrated DNA Technologies, Coralville, Iowa). As shown in FIG. 4(B), the enhanced affinity of the bidentate aptamer to its target (either PDGF BB or AB) was greatest at higher protein concentrations where the binding conditions were 25° C. in 1×PBS with an RNA ligand concentration of <10 pM. […] This enhancement could reflect a splint-dependent reduction in rotational degrees of freedom within the linker region, leading to an increase in the effective concentration of the bidentate ligand. The addition of splint DNA to the monovalent aptamer to PDGF-BB had no effect on binding affinity (FIG. 5).

PDGF-AB = PDGF-AB (UniProt P04085;P01127 P04085:87-211,P01127:82-190); assay: enhanced affinity stated for PDGF BB or AB; 1x PBS, 25 C, ligand <10 pM
Excerpt: as §1

PDGF-BB [2] = biological target: T1, PDGF-BB; assay: enhanced affinity vs monomer, greatest at higher protein concentration; 1x PBS, 25 C, ligand <10 pM; settings: chain copies: 2 (inferred, homodimer)
Excerpt: as §1

TGFβ2 = biological target: T2, TGFβ2 (UniProt P61812 P61812:303-414); assay: competition; monodentate control with 5-bp extension; competes similarly to bidentates with linkers of 30 nt or more; settings: chain copies: 2 (inferred, homodimer)
T2 sequence: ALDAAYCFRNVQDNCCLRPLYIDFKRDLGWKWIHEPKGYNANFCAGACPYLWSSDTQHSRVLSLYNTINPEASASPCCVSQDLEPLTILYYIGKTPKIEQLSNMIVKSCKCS

T1 sequence (P01127 82-190, one chain of several): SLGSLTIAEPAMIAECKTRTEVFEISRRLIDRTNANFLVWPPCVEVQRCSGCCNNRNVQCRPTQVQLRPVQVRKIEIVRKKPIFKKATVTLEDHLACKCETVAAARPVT
PDGF-AB, sequence (P01127 82-190, chain 2 of 2, other chains not shown): as the sequence (P01127 82-190, one chain of several) above

B1: PDGF bidentate aptamer + splint DNA (structured_DNA)
DNA 1: TACTCAGGGCACTGCAAGCAATTGTGGTCCCAATGGGCTGAGTATGTGGTCTATGTCGTCGTTCGCTAGTAGTTCCTGGGCTGCACTCGAGGCGTAGAATTCCCCCGATGCGCGCTGTTCTTACTCAGGGCACTGCAAGCAATTGTGGTCCCAATGGGCTGAGTAT
DNA 2: AAAGGAATTCTACGCCTCGAGTGCAGCCCAGGAACTATTT
B1: binds (PDGF-BB [1]).

B2: PDGF bidentate aptamer (ssDNA)
DNA: TACTCAGGGCACTGCAAGCAATTGTGGTCCCAATGGGCTGAGTATGTGGTCTATGTCGTCGTTCGCTAGTAGTTCCTGGGCTGCACTCGAGGCGTAGAATTCCCCCGATGCGCGCTGTTCTTACTCAGGGCACTGCAAGCAATTGTGGTCCCAATGGGCTGAGTAT
B2: binds (PDGF-AB); binds (PDGF-BB [2]).

B3: ARC77 with 5-bp terminal extension (ssRNA)
RNA: GCGCCGAGGUUAUUACAGAGUCUGUAUAGCUGUACUCGGCGC
modifications: 2'-F pyrimidines (inferred)
B3: binds (TGFβ2).

Source: patent US20040180360, “Multivalent aptamer therapeutics with improved pharmacodynamic properties and methods of making and using the same” (published 2004)
